# Laboratory results from IntAct's records for PubMed 20133654.
# Key:
# [1] = target: obscn_human OBSCN (UniProt Q5VST9)
# [2] = target: obsl1_human OBSL1 (UniProt O75147)
# Chain of obsl1_human OBSL1 (O75147 whole entry): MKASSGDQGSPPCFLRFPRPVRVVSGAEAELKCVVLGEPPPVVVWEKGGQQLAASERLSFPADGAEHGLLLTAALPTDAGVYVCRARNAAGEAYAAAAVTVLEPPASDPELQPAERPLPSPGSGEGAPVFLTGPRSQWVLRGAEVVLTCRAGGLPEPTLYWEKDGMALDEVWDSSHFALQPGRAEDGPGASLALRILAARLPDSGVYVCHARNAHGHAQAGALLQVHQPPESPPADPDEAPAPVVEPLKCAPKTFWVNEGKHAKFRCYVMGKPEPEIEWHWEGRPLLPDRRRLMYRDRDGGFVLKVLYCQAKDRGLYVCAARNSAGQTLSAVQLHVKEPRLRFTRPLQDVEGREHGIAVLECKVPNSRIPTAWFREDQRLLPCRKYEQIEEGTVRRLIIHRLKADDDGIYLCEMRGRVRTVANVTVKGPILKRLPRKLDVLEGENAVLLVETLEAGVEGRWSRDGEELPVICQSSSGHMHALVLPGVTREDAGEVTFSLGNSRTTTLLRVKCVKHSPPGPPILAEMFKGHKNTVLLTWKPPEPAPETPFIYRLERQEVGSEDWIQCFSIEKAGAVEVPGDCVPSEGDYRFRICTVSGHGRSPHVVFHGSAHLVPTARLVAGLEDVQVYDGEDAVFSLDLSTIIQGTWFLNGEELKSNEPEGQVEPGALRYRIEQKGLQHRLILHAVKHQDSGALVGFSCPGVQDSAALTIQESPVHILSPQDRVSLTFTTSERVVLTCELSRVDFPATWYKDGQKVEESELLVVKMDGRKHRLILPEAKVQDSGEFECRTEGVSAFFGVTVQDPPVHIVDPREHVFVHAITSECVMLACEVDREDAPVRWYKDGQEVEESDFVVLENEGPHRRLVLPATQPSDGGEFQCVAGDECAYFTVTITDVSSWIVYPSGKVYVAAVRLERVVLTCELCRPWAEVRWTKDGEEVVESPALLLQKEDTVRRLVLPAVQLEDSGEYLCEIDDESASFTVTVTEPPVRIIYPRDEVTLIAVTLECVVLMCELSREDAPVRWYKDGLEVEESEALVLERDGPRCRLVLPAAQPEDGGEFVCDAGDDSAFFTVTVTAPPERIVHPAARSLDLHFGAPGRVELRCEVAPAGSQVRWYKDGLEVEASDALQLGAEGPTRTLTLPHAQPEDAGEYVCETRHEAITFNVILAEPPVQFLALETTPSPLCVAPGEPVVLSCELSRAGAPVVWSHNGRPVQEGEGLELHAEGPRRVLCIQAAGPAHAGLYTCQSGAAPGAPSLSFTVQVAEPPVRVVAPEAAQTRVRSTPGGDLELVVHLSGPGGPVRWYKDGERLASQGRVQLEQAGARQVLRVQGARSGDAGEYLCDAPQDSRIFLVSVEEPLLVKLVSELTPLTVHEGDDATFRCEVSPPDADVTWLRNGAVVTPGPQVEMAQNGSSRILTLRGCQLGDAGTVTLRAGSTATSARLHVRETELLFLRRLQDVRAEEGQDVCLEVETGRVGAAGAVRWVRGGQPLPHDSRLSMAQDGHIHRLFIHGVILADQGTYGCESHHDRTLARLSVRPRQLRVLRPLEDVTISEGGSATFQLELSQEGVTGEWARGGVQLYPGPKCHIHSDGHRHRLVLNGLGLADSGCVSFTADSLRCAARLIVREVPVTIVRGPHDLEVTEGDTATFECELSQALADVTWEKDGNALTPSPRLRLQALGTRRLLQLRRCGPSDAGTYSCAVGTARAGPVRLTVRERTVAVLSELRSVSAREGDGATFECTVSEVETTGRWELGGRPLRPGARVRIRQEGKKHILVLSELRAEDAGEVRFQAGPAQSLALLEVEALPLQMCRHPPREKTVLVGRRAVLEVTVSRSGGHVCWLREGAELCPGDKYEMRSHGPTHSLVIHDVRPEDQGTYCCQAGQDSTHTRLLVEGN
effect of a mutation on the interaction [1],effect of a mutation on the interaction [2],Substance
disrupting interaction,disrupting interaction,"Titin (Homo sapiens), Q8WZ42 A34260Y"
increasing interaction,–,"Titin (Homo sapiens), Q8WZ42 I34306N"
